From the RNAGym collection of RNA variant scans (doi:10.7554/elife.90254) come the findings set out here.

First the molecules themselves.
B1: LINE1-full (parent)
chain: UACGUAGGUGGUUUUCCCCUGAUAGUGCUAAGGGGGCCUGGAAGUUUGGACUGGGCAGAGCUCAACACAGCGUGGCAAAGUGGCUGUGGCUAGACUGCCUCUCUGGAUUCCUCGUCACUCAGCAGGGCAUCUCUGAGAGAAAUGCC

The series covers variants of B1. Kind of series: self-cleavage, relative activity (ratio to wild type); higher = more cleavage; in vitro, sequencing; the parent is a self-cleaving ribozyme.
In the case of AACGUAGGUGGUUUUCCCCUGAUAGUGCUAAGGGGGCCUGGAAGUUUGGACUGGGCAGAGCUCAACACAGCGUGGCAAAGUGGCUGUGGCUAGACUGCCUCACUGGAUUCCUCGUCACUCAGCAGGGCAUCUCUGAGAGAAAUGCC, the self-cleavage was found to be 0.48.
For CACGUAGGUGGUUUUCCCCUGAUAGUGCUAAGGGGGCCUGGAAGUUUGGGCUGGGCAGAGCUCAACACAGCGUGGCAAAGUGGCUGUGGCUAGACUGCCUCUCUGGAUUCCUCGUCACUCAGCAGGGCAUCUCUGAGAGAAAUGCC, the self-cleavage is 0.64.
In the case of AACGUAGGUGGUUUUCCCCUGAUAGUGCUAAGGGGGCCUGGAAGUUUGGACUGGGCAGAGCUCAACACAGCGUGGCAAAGUGGCUGUGGCUAGACUGCCUCUCUGGAUUCCUCGUCACUCAGCAGGGCAUCUCCGAGAGAAAUGCC it was 0.47; in that of AACGUAGGUGGUUUUCCCCUGAUAGUGCUAAGGGGGCCUGGAAGUUUGGACUGGGCAGAGCUCAACACAGCGUGGCAAAGUGGCUGUGGCUAGACUGCCUCUCUGGACUCCUCGUCACUCAGCAGGGCAUCUCUGAGAGAAAUGCC, 0.77; in that of AACGUAGGUGGUUUUCCCCUGAUAGUGCUAAGGGGGCCUGGAAGUUUGGACUGGGCAGAGCUCAACACAGCGUGGCAAAGUGGCUGUGGCUAGACUGCCUCUCUGGAUUCCCCGUCACUCAGCAGGGCAUCUCUGAGAGAAAUGCC, 1.03.
As for CACGUAGGUGGUUUUCCCCUGAUAGUGCUAAGGGGGCCUGGAAGUUUGGACUGGGCAGAGCUCAACACAGCGUGGCAAAGUGGCUGUGGCUAGACUGCCUCUCUGGAUUCCUCGUCACUCAGCAGGGCAUCUCUGAGAGAAGUGCC, the self-cleavage was 0.99.
With CACGUAGGUGGUUUUCCCCUGAUAGUGCUAAGGGGGCCUGGAAGUUUGGACUGGGCGGAGCUCAACACAGCGUGGCAAAGUGGCUGUGGCUAGACUGCCUCUCUGGAUUCCUCGUCACUCAGCAGGGCAUCUCUGAGAGAAAUGCC, the self-cleavage was determined as 0.56.
Take CACGUAGGUGGUUUUCCCCUGAUGGUGCUAAGGGGGCCUGGAAGUUUGGACUGGGCAGAGCUCAACACAGCGUGGCAAAGUGGCUGUGGCUAGACUGCCUCUCUGGAUUCCUCGUCACUCAGCAGGGCAUCUCUGAGAGAAAUGCC: the self-cleavage came out at 1.15.
In the case of CACGUAGGUGGUUUUCCCCUGAUCGUGCUAAGGGGGCCUGGAAGUUUGGACUGGGCAGAGCUCAACACAGCGUGGCAAAGUGGCUGUGGCUAGACUGCCUCUCUGGAUUCCUCGUCACUCAGCAGGGCAUCUCUGAGAGAAAUGCC, the self-cleavage is 0.91.
For the variant CACGUAGGUGGUUUUCCCCUGAUAGUGCUAAGGGGGGCUGGAAGUUUGGACUGGGCAGAGCUCAACACAGCGUGGCAAAGUGGCUGUGGCUAGACUGCCUCUCUGGAUUCCUCGUCACUCAGCAGGGCAUCUCUGAGAGAAAUGCC, the self-cleavage worked out at 0.73.
As for CACGUAGGUGGUUUUCCCCUGAUAGUGCUAAGGGGGCCUGGAAGUUUGGACUGGGCAGAGCUCAGCACAGCGUGGCAAAGUGGCUGUGGCUAGACUGCCUCUCUGGAUUCCUCGUCACUCAGCAGGGCAUCUCUGAGAGAAAUGCC, the self-cleavage came out at 0.07.
For CACGUAGGUGGUUUUCCCCUGAUAGUGCUAAGGGGGCCUGGAAGUUUGGACUGGGCAGAGCUCAUCACAGCGUGGCAAAGUGGCUGUGGCUAGACUGCCUCUCUGGAUUCCUCGUCACUCAGCAGGGCAUCUCUGAGAGAAAUGCC, the self-cleavage is 0.06.
Turning to CACGUAGGUGGUUUUCCCCUGAUAGUGCUAAGGGGGCCUGGAAGUUUGGACUGGGCAGAGCUCAACACAGCGUGGCAAAGUGGCUGUGGCUAGACUGCCUCUCUGGAUUCCUCGUCACUCAGCAGGGCAUCUCUGUGAGAAAUGCC, the self-cleavage amounted to 1.15.
Regarding AACGUAGGUGGUUUUCCCCUGAUAGUGCUAAGGGGGCCUGGAAGUUUGGACUGGGCAGAGCUCAACACAGCGUGGCAAAGUGGCUGUGGCUAGACUGCCUCUCAGGAUUCCUCGUCACUCAGCAGGGCAUCUCUGAGAGAAAUGCC, the self-cleavage worked out at 1.2.
Turning to AACGUAGGUGGUUUUCCCCUGAUAGUGCUAAGGGGGCCUGGAAGUUUGGACUGGGCAGAGCUCAACACAGCGUGGCAAAGUGGCUGUGGCUAGACUGCCUCUCCGGAUUCCUCGUCACUCAGCAGGGCAUCUCUGAGAGAAAUGCC, the self-cleavage turned out to be 1.51.
As to CACGUAGGUGGUUUUCCCCUGAUAGUGCUAAGGGGGCCUGGAAGUUUGGACUGGGCAGAGCUCAACACAGCGUGGCGAAGUGGCUGUGGCUAGACUGCCUCUCUGGAUUCCUCGUCACUCAGCAGGGCAUCUCUGAGAGAAAUGCC, the self-cleavage came to 1.32.
As to CACGUAGGUGGUUUUCCCCUGAUAGUGCUAAGGGGGCCUGGAAGUUUGGACUGGGCAGAGCUCAACACAGCGUGGCAAAGUGGCUGUGGCUAGACUGCCUCUCUGGAUUCCUCGUCACUCUGCAGGGCAUCUCUGAGAGAAAUGCC, the self-cleavage turned out to be 1.06.
Under CACGUAGGUGGUUUUCCCCUGAUAGUGCUAAGGGGGCCUGGAAGUUUGGACUGGGCAGAGCUCAACACAGCGUGGCAAAGUGGCUGUGGCUAGACUGCCUCUCUGGAUUCCUCGUCACUCGGCAGGGCAUCUCUGAGAGAAAUGCC stands 0.79.
As for CACGUAGGUGGUUUUCCCCUGAUAGUGCUAAGGGGGCCUGGAAGUUUGGACUGGGCAGAGCUCAACACAGCGUGGCAAAGUGGCUGUGGCUAGACUGCCUCUCUGGAUUCCUCGUCACUCAGCGGGGCAUCUCUGAGAGAAAUGCC, the self-cleavage is 0.75.
Take CACGUAGGUGGUUUUCCCCUGAUAGUGCUAAGGGGGCCUGGAAGUUUGGACUGGGCAGAGCUCAACACAGCGUGGCAAAGUGGCUGUGGCUAGGCUGCCUCUCUGGAUUCCUCGUCACUCAGCAGGGCAUCUCUGAGAGAAAUGCC: the self-cleavage is 0.24.
Turning to CACGUAGGUGGUUUUCCCCUGAUAGUGCUAAGGGGGCCUGGAAGUUUGGACUGGGCAGAGCUCAACGCAGCGUGGCAAAGUGGCUGUGGCUAGACUGCCUCUCUGGAUUCCUCGUCACUCAGCAGGGCAUCUCUGAGAGAAAUGCC, the self-cleavage is 0.41.
Turning to CGCGUAGGUGGUUUUCCCCUGAUAGUGCUAAGGGGGCCUGGAAGUUUGGACUGGGCAGAGCUCAACACAGCGUGGCAAAGUGGCUGUGGCUAGACUGCCUCUCUGGAUUCCUCGUCACUCAGCAGGGCAUCUCUGAGAGAAAUGCC, the self-cleavage was determined as 0.72.
Take AACGUAGGUGGUUUUCCCCUGAUAGUGCUAAGGGGGCCUGGAAGUUUGGACUGGGCAGAGCUCAACACAGCGUGGCAAAGUGGCUGUGGCUAGACGGCCUCUCUGGAUUCCUCGUCACUCAGCAGGGCAUCUCUGAGAGAAAUGCC: the self-cleavage was found to be 0.
For the variant CACGUAGGUGGUUUUCCCCUGAUAGUGCUAAGGGGGCCUGGAAGUUUGGACUGGGCAGAGCUCAACACAGCGUGGCAAAGUGGCUGUGGCUAGACUGCCUCUCUGGAUUCCUCGUCACUCAGCAGGGCAUCUCUGAGAGGAAUGCC, the self-cleavage amounted to 0.99.
In the case of AACGUAGGUGGUUUUCCCCUGAUAGUGCUAAGGGGGCCUGGAAGUUUGGACUGGGCAGAGCUCAACACAGCGUGGCAAAGUGGCUGUGGCUAGACUGCCUCUCUGGAUUCCUCGUCACUCAGCAGGGCAUCUCUGAGAGAAAAGCC, the self-cleavage came to 1.04.
As for CACGUAGGUGGUUUUCCCCUGAUAGUGCUAAGGGGGCCUGGAAGUUUGGACUGGGCAGAGCUCAACACAGCGUGGCAAGGUGGCUGUGGCUAGACUGCCUCUCUGGAUUCCUCGUCACUCAGCAGGGCAUCUCUGAGAGAAAUGCC, the self-cleavage came out at 0.86.
Turning to CACGUAGGUGGUUUUCCCCUGAUAGUGCUACGGGGGCCUGGAAGUUUGGACUGGGCAGAGCUCAACACAGCGUGGCAAAGUGGCUGUGGCUAGACUGCCUCUCUGGAUUCCUCGUCACUCAGCAGGGCAUCUCUGAGAGAAAUGCC, the self-cleavage stood at 1.33.
Turning to CACGUAGGUGGUUUUCCCCUGAUAGUGCUAAGGGGGCCUGGAAGUUUGGACUGGGCAGAGCUCAACACAGCGUGGCAAAGUGGCUGUGGCUAGACUGCCUCUCUGGAUUCCUCGUCACUCAGCAGGGCGUCUCUGAGAGAAAUGCC, the self-cleavage stood at 1.38.
On to CACGUAGGUGGUUUUCCCUUGAUAGUGCUAAGGGGGCCUGGAAGUUUGGACUGGGCAGAGCUCAACACAGCGUGGCAAAGUGGCUGUGGCUAGACUGCCUCUCUGGAUUCCUCGUCACUCAGCAGGGCAUCUCUGAGAGAAAUGCC, for which the self-cleavage was determined as 0.66.
Consider CACGUAGGUGGUUUUCCCCUGAUAGUGCUGAGGGGGCCUGGAAGUUUGGACUGGGCAGAGCUCAACACAGCGUGGCAAAGUGGCUGUGGCUAGACUGCCUCUCUGGAUUCCUCGUCACUCAGCAGGGCAUCUCUGAGAGAAAUGCC, for which the self-cleavage was 0.73.
Turning to CACGUAGGUGGUUUUCCCCUGGUAGUGCUAAGGGGGCCUGGAAGUUUGGACUGGGCAGAGCUCAACACAGCGUGGCAAAGUGGCUGUGGCUAGACUGCCUCUCUGGAUUCCUCGUCACUCAGCAGGGCAUCUCUGAGAGAAAUGCC, the self-cleavage came out at 0.84.
Turning to CACGUAGGUGGUUUUCCCCUGUUAGUGCUAAGGGGGCCUGGAAGUUUGGACUGGGCAGAGCUCAACACAGCGUGGCAAAGUGGCUGUGGCUAGACUGCCUCUCUGGAUUCCUCGUCACUCAGCAGGGCAUCUCUGAGAGAAAUGCC, the self-cleavage came to 0.54.
Under AACGUAGGUGGUUUUCCCCUGAUAGUGCUAAGGGGGCCUGGAAGUUUGGACUGGGCAGAGCUCAACACAGCGUGGCAAAGUGGCUGUGGCUAGACUGCCUCUCUGGAUUCCUCGUCACUCAGCAGGGCACCUCUGAGAGAAAUGCC stands 1.46.
On to CACGUAGGUGGUUUUCCCCUGAUAGUGCUAAGGGGGCCUGGAAGUUUGGACUGGGCAGAGCUCAACACAGCGUGGCAAAGUGGCUGUGGCUAGACUGCCUCUCUGGAUUCCUCGUCACUCAGCAGGGCAUCUCUGAGAGAAAUGCC, for which the self-cleavage was found to be 0.86.
On to CACGUAGGUGGUUUUCCCCUGAUAGUGCUAAGGGGGCCUGGAAGUUUGGACUGGGCAGAGCUCAACACGGCGUGGCAAAGUGGCUGUGGCUAGACUGCCUCUCUGGAUUCCUCGUCACUCAGCAGGGCAUCUCUGAGAGAAAUGCC, for which the self-cleavage amounted to 0.42.
Turning to CACGUAGGUGGUUUUCCCCUGAUAGUGCUAAGGGGGCCUGGAAGUUUGGACUGGGCAGAGCUCAACACUGCGUGGCAAAGUGGCUGUGGCUAGACUGCCUCUCUGGAUUCCUCGUCACUCAGCAGGGCAUCUCUGAGAGAAAUGCC, the self-cleavage came to 0.04.
On to CACGUAGGUGGUUUUCCCCUGAUAGUGCUAAGGGGGCCUGGAAGUUUGGACUGGGCAGAGCUCAACACCGCGUGGCAAAGUGGCUGUGGCUAGACUGCCUCUCUGGAUUCCUCGUCACUCAGCAGGGCAUCUCUGAGAGAAAUGCC, for which the self-cleavage was found to be 0.07.
Regarding CACGUAGGUGGUUUUCCCCUGAUAGUGCUAAGGGGGCCUGGAAGUUUGGACUGGGCAGAGCUCAACACAGCGUGGCAAAGUGGCUGUGGCUAGACUGCCUCUCUGGGUUCCUCGUCACUCAGCAGGGCAUCUCUGAGAGAAAUGCC, the self-cleavage worked out at 0.75.
As to CACGUAGGUGGUUUUCCCCUGAUAGUGCUAAGGGGGCCUGGAAGUUUGGACUGGGCAGAGCUCAACACAGCGUGGCAAAGUGGCUGUGGCUAGACUGCCUCUCUGGAUUCCUCGUCACUCAGCAGGGCAUCUCUGAGGGAAAUGCC, the self-cleavage was found to be 0.7.
